Source: patent US20260167734A1 (PROVIDENCE HEALTH AND SERVICES OREGON, published 2026)

Columns and labels:
[1] = target: T1, mouse FasL, cell surface (mouse, UniProt P41047 1-279); assay: flow cytometry, HEK293T cells transfected with mouse FasL
T1 construct: Expressed on transfected HEK293T cells
T1 sequence: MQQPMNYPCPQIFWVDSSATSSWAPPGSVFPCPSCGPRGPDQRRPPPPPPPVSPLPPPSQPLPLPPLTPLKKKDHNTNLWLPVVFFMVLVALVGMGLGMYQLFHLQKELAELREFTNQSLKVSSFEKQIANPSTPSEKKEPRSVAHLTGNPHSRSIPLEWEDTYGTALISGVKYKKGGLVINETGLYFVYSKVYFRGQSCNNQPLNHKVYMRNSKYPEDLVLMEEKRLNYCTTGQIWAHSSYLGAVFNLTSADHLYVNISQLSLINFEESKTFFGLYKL
Method: (§1) FIG. 2B: Binding of M3T01 to cell surface FasL across multiple species (human, cynomolgus macaque, rat, and mouse). M3T01 staining of HEK293T cells transfected with vectors expressing FasL from various species was measured by flow cytometry.
(§2) Next, assays were performed to evaluate binding of M3T01 to cell-surface, membrane-bound FasL from a variety of different species. HEK293T cells were transfected with vectors expressing either mouse, human, rat or cynomolgus macaque FasL and binding by M3T01 was measured by flow cytometry.

[2] = target: T2, soluble human Fas ligand (FasL) (human, UniProt P48023 103-281, limits assumed); assay: multi-dose SPR, BIACORE 8K; multi-dose SPR using BIACORE 8K
T2 construct: also called sFasL; recombinant soluble FasL
T2 sequence: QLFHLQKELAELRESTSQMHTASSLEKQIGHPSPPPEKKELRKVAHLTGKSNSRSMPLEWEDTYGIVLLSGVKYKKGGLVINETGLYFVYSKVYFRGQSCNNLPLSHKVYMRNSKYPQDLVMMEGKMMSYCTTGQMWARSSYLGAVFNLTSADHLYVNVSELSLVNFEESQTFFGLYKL
Method: (§3) Binding of M3T01 to human FasL was measured by multi-dose SPR using BIACORE™ 8K. […] In another study, binding of M3T01 to soluble FasL (sFasL) was measured by ELISA.

[3] = target: T3, cynomolgus macaque FasL, cell surface (cynomolgus macaque, UniProt P63308 1-280); assay: flow cytometry, HEK293T cells transfected with cynomolgus macaque FasL
T3 construct: Expressed on transfected HEK293T cells
T3 sequence: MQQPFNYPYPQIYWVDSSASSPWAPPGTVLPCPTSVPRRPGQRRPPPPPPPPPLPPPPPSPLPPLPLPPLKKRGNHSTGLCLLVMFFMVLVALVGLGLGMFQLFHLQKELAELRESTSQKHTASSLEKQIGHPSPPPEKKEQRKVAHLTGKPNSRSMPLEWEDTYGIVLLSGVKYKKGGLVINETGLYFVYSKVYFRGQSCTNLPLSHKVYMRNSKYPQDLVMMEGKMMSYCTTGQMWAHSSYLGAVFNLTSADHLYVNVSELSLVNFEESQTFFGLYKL
Method: as §1, §2

[4] = target: T2, soluble human Fas ligand (FasL); assay: ELISA on soluble FasL
[5] = target: T2, soluble human Fas ligand (FasL); assay: single-dose SPR
Text: Several variants of the M3T01 antibody were isolated and tested for binding affinity to human FasL using a single-dose SPR affinity measurement. Each variant clone includes the same CDR sequences as M3T01 but includes one or more amino acid substitutions in the framework region (FR) of the VH domain and/or VL domain. The variant sequences, substitutions relative to the M3T01 VH and VL domains, and measured binding affinity are listed in Table 2. The binding affinities reported in Table 2 are from a single-dose SPR study.

[6] = target: T4, rat FasL, cell surface (rat, UniProt P36940 1-278); assay: flow cytometry, HEK293T cells transfected with rat FasL
T4 construct: Expressed on transfected HEK293T cells
T4 sequence: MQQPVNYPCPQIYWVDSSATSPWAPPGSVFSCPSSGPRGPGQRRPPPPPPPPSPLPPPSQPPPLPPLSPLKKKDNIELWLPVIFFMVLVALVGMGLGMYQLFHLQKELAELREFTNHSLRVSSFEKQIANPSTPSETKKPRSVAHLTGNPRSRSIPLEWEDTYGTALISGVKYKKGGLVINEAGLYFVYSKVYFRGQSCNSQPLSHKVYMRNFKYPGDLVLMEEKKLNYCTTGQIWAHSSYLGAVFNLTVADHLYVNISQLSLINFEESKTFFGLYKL
Method: as §1, §2

[7] = target: T2, soluble human Fas ligand (FasL); assay: SPR, BIACORE 8K, multi-dose; M3T01 in column 'Ligand', Recombinant Human Fas Ligand in column 'Analyte'
Method: as §3

[8] = target: T5, human FasL, cell surface (membrane-bound) (human, UniProt P48023 1-281); assay: cell-based or functional assay
T5 sequence: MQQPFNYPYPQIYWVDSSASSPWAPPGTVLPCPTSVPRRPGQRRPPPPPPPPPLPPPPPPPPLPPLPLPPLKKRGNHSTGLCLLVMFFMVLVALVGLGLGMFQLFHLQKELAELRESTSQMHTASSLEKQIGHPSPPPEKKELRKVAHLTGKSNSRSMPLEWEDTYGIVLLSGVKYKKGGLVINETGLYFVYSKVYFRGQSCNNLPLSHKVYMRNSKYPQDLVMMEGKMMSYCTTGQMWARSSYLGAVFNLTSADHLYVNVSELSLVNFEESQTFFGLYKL

B1: M3T01 (antibody, V domains shown)
VH: QVQLVESGGGVVQPGRSLRLSCAASGFTFSTYGIHWVRQAPGKGLEWVAVIWYDGSDKFYADSVKGRFTISRDNSKNTLYLQMNSLRAEDTAVYYCARDRDNWNYFDYWGQGTLVTVSS
VL: DIQMTQSPSTLSASVGDRVTITCRASQSISSWLAWYQQKPGKAPKFLIYQASSLESGVPSRFSGSGSGTEFTLTISSLQPDDFATYYCQQYNSYITFGQGTRLEIKR
notes: Fully human IgG4/kappa with S228P; also called M27.2
- binding result [1]: binds
- Kd [2]: 0.974 nM
- binding result [3]: binds
- EC50 (read off the curve) [4]: ~0.02 nM
- Kd [5]: 3.2 nM
- binding result [6]: binds
- koff [7]: 0.000235 s⁻¹
- kon [7]: 242000 M⁻¹ s⁻¹
- inhibition of FasL-mediated apoptosis of Jurkat cells (annexin-V externalization, flow cytometry), IC50 [8]: 0.33 nM
- inhibition of FasL-mediated apoptosis of Jurkat cells, potency relative to sCD95-Fc [8]: 310 fold

B2: M27.3 (antibody, V domains shown)
VH: QVQLVESGGGVVQPGRSLRLSCAASGFTFSTYGIHWVRQAPGKGLEWVAVIWYDGSDKFYADSVKGRFTISRDNSKDTLYLEMNSLRAEDTAMYYCARDRDNWNYFDYWGQGTLVTVSS
VL: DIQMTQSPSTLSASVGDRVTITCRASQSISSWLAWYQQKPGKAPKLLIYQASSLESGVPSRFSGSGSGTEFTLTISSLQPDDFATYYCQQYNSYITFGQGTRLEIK
notes: Variant clone of M3T01 with the same CDRs
- Kd [5]: 1.96 nM

B3: M27.1 (antibody, V domains shown)
VH: QVQLVESGGGVVQPGRSLRLSCAASGFTFSTYGIHWVRQAPGKGLEWVAVIWYDGSDKFYADSVKGRFTISRDNSKDTLYLEMNSLRAEDTAMYYCARDRDNWNYFDYWGQGTLVTVSS
VL: DIQMTQSPSTLSASVGDRVTITCRASQSISSWLAWYQQKPGKAPKFLIYQASSLESGVPSRFSGSGSGTEFTLTISSLQPDDFATYYCQQYNSYITFGQGTRLEIK
notes: as for B2
- Kd [5]: 1.36 nM

B4: M27.4 (antibody, V domains shown)
VH: QVQLVESGGGVVQPGRSLRLSCAASGFTFSTYGIHWVRQAPGKGLEWVAVIWYDGSDKFYADSVKGRFTISRDNSKNTLYLQMNSLRAEDTAVYYCARDRDNWNYFDYWGQGTLVTVSS
VL: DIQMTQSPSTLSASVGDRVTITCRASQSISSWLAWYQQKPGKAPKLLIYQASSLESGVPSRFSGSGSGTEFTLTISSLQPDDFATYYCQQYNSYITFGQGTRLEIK
notes: as for B2
- Kd [5]: 3.1 nM

B5: M27.5 (antibody, V domains shown)
VH: QVQLVESGGGVVQPGRSLRLSCAASGFTFSTYGIHWVRQAPGKGLEWVAVIWYDGSDKFYADSVKGRFTISRDNSKDTLYLQMNSLRAEDTAMYYCARDRDNWNYFDYWGQGTLVTVSS
VL: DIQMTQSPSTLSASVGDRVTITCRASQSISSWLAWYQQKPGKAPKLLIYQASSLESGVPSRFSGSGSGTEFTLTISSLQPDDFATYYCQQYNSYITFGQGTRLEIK
notes: as for B2
- Kd [5]: 3.44 nM

B6: M27.6 (antibody, V domains shown)
VH: QVQLVESGGGVVQPGRSLRLSCAASGFTFSTYGIHWVRQAPGKGLEWVAVIWYDGSDKFYADSVKGRFTISRDNSKDTLYLEMNSLRAEDTAVYYCARDRDNWNYFDYWGQGTLVTVSS
VL: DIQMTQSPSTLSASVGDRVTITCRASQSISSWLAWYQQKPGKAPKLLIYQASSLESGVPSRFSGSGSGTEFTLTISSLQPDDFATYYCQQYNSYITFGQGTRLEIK
notes: as for B2
- Kd [5]: 2.12 nM
